Test results from patent publication US20100292089A1 (CYTOS BIOTECHNOLOGY, published 2010).

B1: Qb#3 Fab fragment (Fab, V domains shown)
VH: QVQLQESGPGLVKPSETLSLTCTVSGGSISSGNYYWSWIRQTPEKGLEWLGYVHYTGSSKLNPSLKSRVTISVDTYTNQFSLSLSSMTAADTAVYYCARGKNCANDICYIGSWFDPWGQGTLVTVSS
VL: ELVMTQSPSSLSASVGDRVTITCRASQGVSRALAWYQQKPGNPPKLLIYDASNLQSGVPSRFSGGGSGTEFILTISSLQPEDFATYYCQQYNAYPWTFGQGTKLEIK
notes: domain: γ2 heavy chain Fd region; The Fd part is from human γ2; also called Qβ#3 Fab; pCB15-Qb#3-Fab product; not shown: human κ light chain constant region (vector pCMV-LC)
B2: Qb#5 Fab fragment (Fab, V domains shown)
VH: EVQLVQSGPGLVKPSETLSLTCTVSGGSISSTSYSWGWIRQPPGKGLEWIATVSYSGRSYSNPSLKSRVTTSVDTSKNQFSLRLGSVTAADTAVYYCARLYYIWRSYHSGRFDYWGQGTLVPVSS
VL: ELVLTQPPSVSGAPGQRVSISCTGSSSNIGARYDVHWYQQLPGTAPKLLIYGNTNRPSGVPDRFSGSKSGSSASLAITGLQAEDEADYYCQSYDRSLSGVVFGGGTKLTVLG
notes: domain: γ2 heavy chain Fd region; The Fd part is from human γ2; also called Qβ#5 Fab; pCB15-Qb#5-Fab product; not shown: human κ light chain constant region (vector pCMV-LC)
B3: Qb#2 Fab fragment (Fab, V domains shown)
VH: EVQLLESGPGLVKPSETLSLTCTVSGGSISSGNYYWSWIRQTPEKGLEWLGYVHYTGSSKLNPSLKSRVTISVDTYTNQFSLSLSSMTAADTAVYYCARGKNCANDICYIGSWFDPWGQGTLVTVSS
VL: ELGLTQPPSVSGAPGQRVTISCTGSSSNIGRFDVHWYQQLPGTAPKLLIYGNTNRPSGVPDRFSGSKSGSSASLAITGLQAEDEADYYCQSYDRSLSGVVFGGGTQLTVLG
notes: domain: γ2 heavy chain Fd region; The Fd part is from human γ2; also called Qβ#2 Fab; pCB15-Qb#2-Fab product; not shown: human κ light chain constant region (vector pCMV-LC)
B4: scFv-Qb#2-Fc (Fc fusion)
scFv: DADPAQAAELGLTQPPSVSGAPGQRVTISCTGSSSNIGRFDVHWYQQLPGTAPKLLIYGNTNRPSGVPDRFSGSKSGSSASLAITGLQAEDEADYYCQSYDRSLSGVVFGGGTQLTVLGGGSSRSSSSGGGGSGGGGEVQLLESGPGLVKPSETLSLTCTVSGGSISSGNYYWSWIRQTPEKGLEWLGYVHYTGSSKLNPSLKSRVTISVDTYTNQFSLSLSSMTAADTAVYYCARGKNCANDICYIGSWFDPWGQGTLVTVSSASTKGPSVTSGQAGRKLTHTCPPCPAPEAEGAPSVFLFPPKPKDTLMISRTPEVTCVVVDVSHEDPEVKFNWYVDGVEVHNAKTKPREEQYNSTYRVVSVLTVLHQDWLNGKEYKCKVSNKALPASIEKTISKAKGQPREPQVYTLPPSRDELTKNQVSLTCLVKGFYPSDIAVEWESNGQPENNYKTTPPVLDSDGSFFLYSKLTVDKSRWQQGNVFSCSVMHEALHNHYTQKSLSLSPGK
notes: also called pCEP/scFvQb#2-Fc product
B5: scFv-Qb#3-Fc (Fc fusion)
scFv: DADPAQAAELVMTQSPSSLSASVGDRVTITCRASQGVSRALAWYQQKPGNPPKLLIYDASNLQSGVPSRFSGGGSGTEFILTISSLQPEDFATYYCQQYNAYPWTFGQGTKLEIKGGSSRSSSSGGGGSGGGGQVQLQESGPGLVKPSETLSLTCTVSGGSISSGNYYWSWIRQTPEKGLEWLGYVHYTGSSKLNPSLKSRVTISVDTYTNQFSLSLSSMTAADTAVYYCARGKNCANDICYIGSWFDPWGQGTLVTVSSASTKGPSVTSGQAGRKLTHTCPPCPAPEAEGAPSVFLFPPKPKDTLMISRTPEVTCVVVDVSHEDPEVKFNWYVDGVEVHNAKTKPREEQYNSTYRVVSVLTVLHQDWLNGKEYKCKVSNKALPASIEKTISKAKGQPREPQVYTLPPSRDELTKNQVSLTCLVKGFYPSDIAVEWESNGQPENNYKTTPPVLDSDGSFFLYSKLTVDKSRWQQGNVFSCSVMHEALHNHYTQKSLSLSPGK
notes: The entry may contain the signal peptide; also called pCEP/scFvQb#3-Fc product
B6: scFv-Qb#5-Fc (Fc fusion)
scFv: DADPAQAAELVLTQPPSVSGAPGQRVSISCTGSSSNIGARYDVHWYQQLPGTAPKLLIYGNTNRPSGVPDRFSGSKSGSSASLAITGLQAEDEADYYCQSYDRSLSGVVFGGGTKLTVLGGGSSRSSSSGGGGSGGGGEVQLVQSGPGLVKPSETLSLTCTVSGGSISSTSYSWGWIRQPPGKGLEWIATVSYSGRSYSNPSLKSRVTTSVDTSKNQFSLRLGSVTAADTAVYYCARLYYIWRSYHSGRFDYWGQGTLVPVSSASTKGPSVTSGQAGRKLTHTCPPCPAPEAEGAPSVFLFPPKPKDTLMISRTPEVTCVVVDVSHEDPEVKFNWYVDGVEVHNAKTKPREEQYNSTYRVVSVLTVLHQDWLNGKEYKCKVSNKALPASIEKTISKAKGQPREPQVYTLPPSRDELTKNQVSLTCLVKGFYPSDIAVEWESNGQPENNYKTTPPVLDSDGSFFLYSKLTVDKSRWQQGNVFSCSVMHEALHNHYTQKSLSLSPGK
notes: The entry may contain the signal peptide; also called pCEP/scFvQb#5-Fc product
B7: scFv-Qb#8-Fc (Fc fusion)
scFv: DADPAQAAELVVTQEPSVSGAPGQSVTISCTGGSSNIGASYDVHWYKQLPGAAPILLIYANYIRPSGVPDRFSASKSGTSASLAITGLQAEDEADYYCQSYDSSLSGVVFGGGTKLTVLGGGSSRSSSSGGGGSGGGGQVQLQESGGGWVQSGGSLRLSCAASGFSFSSYAMSWVRQAPGKGLEWVSAMSPIGGSTFYADSVKGRFTISRDNSKNTLFLQMNSLRAEDTAVYYCAKDAVVTAVGLGRYFDLWGRGTLVSVSSASTKGPSVTSGQAGRKLTHTCPPCPAPEAEGAPSVFLFPPKPKDTLMISRTPEVTCVVVDVSHEDPEVKFNWYVDGVEVHNAKTKPREEQYNSTYRVVSVLTVLHQDWLNGKEYKCKVSNKALPASIEKTISKAKGQPREPQVYTLPPSRDELTKNQVSLTCLVKGFYPSDIAVEWESNGQPENNYKTTPPVLDSDGSFFLYSKLTVDKSRWQQGNVFSCSVMHEALHNHYTQKSLSLSPGK
notes: The entry may contain the signal peptide; also called pCEP/scFvQb#8-Fc product
B8: Qb#3 whole IgG2 (antibody, V domains shown)
VH: QVQLQESGPGLVKPSETLSLTCTVSGGSISSGNYYWSWIRQTPEKGLEWLGYVHYTGSSKLNPSLKSRVTISVDTYTNQFSLSLSSMTAADTAVYYCARGKNCANDICYIGSWFDPWGQGTLVTVSS
VL: ELVMTQSPSSLSASVGDRVTITCRASQGVSRALAWYQQKPGNPPKLLIYDASNLQSGVPSRFSGGGSGTEFILTISSLQPEDFATYYCQQYNAYPWTFGQGTKLEIK
notes: domain: γ2 heavy chain constant region; also called Qβ#3 IgG2; pCB15-Qb#3-IgG2 product; not shown: human κ light chain constant region (vector pCMV-LC)
B9: Qb#5 whole IgG2 (antibody, V domains shown)
VH: EVQLVQSGPGLVKPSETLSLTCTVSGGSISSTSYSWGWIRQPPGKGLEWIATVSYSGRSYSNPSLKSRVTTSVDTSKNQFSLRLGSVTAADTAVYYCARLYYIWRSYHSGRFDYWGQGTLVPVSS
VL: ELVLTQPPSVSGAPGQRVSISCTGSSSNIGARYDVHWYQQLPGTAPKLLIYGNTNRPSGVPDRFSGSKSGSSASLAITGLQAEDEADYYCQSYDRSLSGVVFGGGTKLTVLG
notes: domain: γ2 heavy chain constant region; also called Qβ#5 IgG2; pCB15-Qb#5-IgG2 product; not shown: human κ light chain constant region (vector pCMV-LC)
B10: Qb#8 whole IgG2 (antibody, V domains shown)
VH: QVQLQESGGGWVQSGGSLRLSCAASGFSFSSYAMSWVRQAPGKGLEWVSAMSPIGGSTFYADSVKGRFTISRDNSKNTLFLQMNSLRAEDTAVYYCAKDAVVTAVGLGRYFDLWGRGTLVSVSS
VL: ELVVTQEPSVSGAPGQSVTISCTGGSSNIGASYDVHWYKQLPGAAPILLIYANYIRPSGVPDRFSASKSGTSASLAITGLQAEDEADYYCQSYDSSLSGVVFGGGTKLTVLG
notes: domain: γ2 heavy chain constant region; also called Qβ#8 IgG2; pCB15-Qb#8-IgG2 product; not shown: human κ light chain constant region (vector pCMV-LC)
B11: Qb#2 whole IgG2 (antibody, V domains shown)
VH: EVQLLESGPGLVKPSETLSLTCTVSGGSISSGNYYWSWIRQTPEKGLEWLGYVHYTGSSKLNPSLKSRVTISVDTYTNQFSLSLSSMTAADTAVYYCARGKNCANDICYIGSWFDPWGQGTLVTVSS
VL: ELGLTQPPSVSGAPGQRVTISCTGSSSNIGRFDVHWYQQLPGTAPKLLIYGNTNRPSGVPDRFSGSKSGSSASLAITGLQAEDEADYYCQSYDRSLSGVVFGGGTQLTVLG
notes: domain: γ2 heavy chain constant region; also called Qβ#2 IgG2; pCB15-Qb#2-IgG2 product

Target: T1, Qβ (RNA bacteriophage Qbeta, UniProt P03615 2-133)
T1 construct: The description says it is a VLP of RNA bacteriophage Qbeta; also called Qbeta; VLP of RNA bacteriophage Qbeta
T1 sequence: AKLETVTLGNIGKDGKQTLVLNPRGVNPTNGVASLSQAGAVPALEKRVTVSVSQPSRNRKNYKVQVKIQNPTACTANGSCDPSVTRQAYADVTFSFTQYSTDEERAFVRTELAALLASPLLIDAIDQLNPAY
Assay: ELISA, Qβ coated, purified Fab; range of concentrations of half-maximal binding

B1 and B2 cannot be ordered by EC50: 0.077 to 0.239 nM for the first, 0.082 to 0.236 nM for the second.

With B3 the EC50 was 0.261 to 0.454 nM.

Target: T1, Qβ
Assay: ELISA, Qβ coated, purified scFv-Fc titrated; concentration of half-maximal binding

Point of comparison: B7, EC50 0.163 nM. Against it:
- B4 — 3.2-fold lower, 0.051 nM
- B5 — 4.7-fold lower, 0.035 nM
- B6 — 3.1-fold lower, 0.052 nM

Target: T1, Qβ
Assay: ELISA, Qβ coated, purified IgG2; range of concentrations of half-maximal binding

B8 and B9 cannot be ordered by EC50: 0.015 to 0.037 nM for the first, 0.021 to 0.054 nM for the second.

First: B10
Second: B11
The EC50 of the first is higher: 0.456 to 1.1 nM for the first, 0.025 to 0.056 nM for the second. The second is the more potent here.
